doi:10.1101/2021.03.25.436804 (bioRxiv, 2021)

Experiments:
Experiment in all cases: BLI
[1] = biological target: monoFc-tagged NRP2 (human neuropilin 2 residues 23-595, a1a2b1b2) (human) (UniProt O60462)
[2] = biological target: NRP2 a2b1b2 (human neuropilin 2 residues 145-595, monoFc-tagged) (human) (UniProt O60462)
[3] = biological target: soluble ectodomain of the HCMV Pentamer (strain Towne) (Human cytomegalovirus strain Towne, UniProt P17176;F5HCH8;P16837;F5HCP3;F5HET4)

soluble ectodomain of the HCMV Pentamer (strain Towne) (from UniProt P17176 24-718) (complex), sequence (P17176 whole entry, looked up, the tested form may be a part): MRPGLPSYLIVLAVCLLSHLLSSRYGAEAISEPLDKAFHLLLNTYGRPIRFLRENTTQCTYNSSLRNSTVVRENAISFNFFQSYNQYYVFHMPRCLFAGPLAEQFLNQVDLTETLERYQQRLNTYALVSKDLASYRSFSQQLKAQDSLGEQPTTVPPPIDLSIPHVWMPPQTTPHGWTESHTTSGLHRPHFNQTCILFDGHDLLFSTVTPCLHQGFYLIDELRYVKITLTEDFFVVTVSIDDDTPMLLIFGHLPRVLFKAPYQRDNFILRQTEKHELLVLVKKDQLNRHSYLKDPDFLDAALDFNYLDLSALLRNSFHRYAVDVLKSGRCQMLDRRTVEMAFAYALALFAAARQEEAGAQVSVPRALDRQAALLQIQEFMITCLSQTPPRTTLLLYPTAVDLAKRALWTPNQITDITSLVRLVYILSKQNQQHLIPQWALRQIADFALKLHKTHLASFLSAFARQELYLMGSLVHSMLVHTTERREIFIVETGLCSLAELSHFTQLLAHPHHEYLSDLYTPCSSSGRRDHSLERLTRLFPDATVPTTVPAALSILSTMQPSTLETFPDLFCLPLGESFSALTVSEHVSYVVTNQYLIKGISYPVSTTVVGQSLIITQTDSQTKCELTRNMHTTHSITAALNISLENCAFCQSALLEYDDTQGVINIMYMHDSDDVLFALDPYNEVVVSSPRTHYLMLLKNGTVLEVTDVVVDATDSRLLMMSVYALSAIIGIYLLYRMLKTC
monoFc-tagged NRP2 (human neuropilin 2 residues 23-595, a1a2b1b2) (human), sequence (O60462 23-595): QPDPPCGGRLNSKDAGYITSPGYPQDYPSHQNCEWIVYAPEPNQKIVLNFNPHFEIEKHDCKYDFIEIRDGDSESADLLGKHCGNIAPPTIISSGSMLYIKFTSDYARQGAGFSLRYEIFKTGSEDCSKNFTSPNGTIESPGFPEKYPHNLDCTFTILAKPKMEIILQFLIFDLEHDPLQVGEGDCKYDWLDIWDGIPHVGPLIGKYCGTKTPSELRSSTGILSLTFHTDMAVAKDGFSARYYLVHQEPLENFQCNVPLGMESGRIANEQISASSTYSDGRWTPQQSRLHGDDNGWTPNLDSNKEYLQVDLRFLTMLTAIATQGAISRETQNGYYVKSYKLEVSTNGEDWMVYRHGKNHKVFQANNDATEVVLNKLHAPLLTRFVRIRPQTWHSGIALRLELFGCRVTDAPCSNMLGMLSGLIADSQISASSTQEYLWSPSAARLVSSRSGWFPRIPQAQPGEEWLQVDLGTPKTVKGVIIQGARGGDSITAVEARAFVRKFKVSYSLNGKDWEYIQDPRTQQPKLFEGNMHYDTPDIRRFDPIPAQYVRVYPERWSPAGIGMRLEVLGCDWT
NRP2 a2b1b2 (human neuropilin 2 residues 145-595, monoFc-tagged) (human), sequence (O60462 145-595): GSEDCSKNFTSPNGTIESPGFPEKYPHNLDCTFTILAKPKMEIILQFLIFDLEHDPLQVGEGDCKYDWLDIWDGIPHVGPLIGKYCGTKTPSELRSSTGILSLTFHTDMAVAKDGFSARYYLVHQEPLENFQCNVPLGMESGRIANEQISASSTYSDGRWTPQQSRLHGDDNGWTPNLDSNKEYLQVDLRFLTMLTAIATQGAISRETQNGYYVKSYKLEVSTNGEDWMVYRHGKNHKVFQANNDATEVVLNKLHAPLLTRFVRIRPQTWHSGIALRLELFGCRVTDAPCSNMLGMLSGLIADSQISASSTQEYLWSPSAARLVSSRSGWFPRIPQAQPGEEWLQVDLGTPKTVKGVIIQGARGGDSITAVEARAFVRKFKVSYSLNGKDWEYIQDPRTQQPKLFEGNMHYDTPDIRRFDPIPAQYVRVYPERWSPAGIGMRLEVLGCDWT

binding result [3]	Molecule	Kd [1]	Kd [2]
	soluble ectodomain of the HCMV Pentamer (strain Towne) (from UniProt P17176 24-718) (complex)	2.2 nM	7.9 nM
binds	1-32 IgG (antibody, V domains shown) VH: QVKLVESGGGVVQPGRSLRLSCAGSGFAFDNYAMHWVRQAPGKGLEWVAVISLEGRNKYYAGPAKGRFSISRDNSRNTVHLQMNSLRPEDTAVYFCARDMRYYYDSNGHYRNRYGMDVWGQGTTVIVSS VL: DIQMTQSPSSLSASVGDSVTITCQASQDINQFVSWYQQKPGKPPKLLIYDASNLESGVPSRFSGSGSGTHFTFTISSLQPDDIATYYCQQYENLFTFGPGTKVDIK		
